The values below come from article PMC8481289, “Structural basis for UFM1 transfer from UBA5 to UFC1” (Nature Communications, 2021).

B2: UFC1 (WT) (enzyme, human)
chain: MADEATRRVVSEIPVLKTNAGPRDRELWVQRLKEEYQSLIRYVENNKNADNDWFRLESNKEGTRWFGKCWYIHDLLKYEFDIEFDIPITYPTTAPEIAVPELDGKTAKMYRGGKICLTDHFKPLWARNVPKFGLAHLMALGLGPWLAVEIPDLIQKGVIQHKEKCNQ
notes: UFC1, the E2 of UFM1; active site C116; 15N-labelled (M9 medium with 15NH4Cl) for the NMR titrations; In the two crystal structures UFC1 stood as part of a fusion chain; also called E2

What all share (conditions): both partners purified
The target in experiment [1] is B2. The experiment in a line: crystal structure; UBA5(347-404) fused to the N-terminus of UFC1; 2.65 Å; the UBS binds the UFC1 of a molecule of another asymmetric unit; 2% tacsimate pH 7.0, 20% PEG 3350, 0.1 M HEPES pH 7.5, 6 mM zinc sulfate, 20 °C.
The target of a further experiment is T1, UBA5 Y372A (human, UniProt Q9GZZ9 1-404, Y372A).
T1 construct: UBA5, human, point mutant in the linker between UIS and UBS
The experiment is described as follows: ITC; UFC1 titrated into the UBA5 construct (heat per mole of UFC1); MicroCal PEAQ ITC, 25 °C; 20 mM Tris pH 7.5, 50 mM NaCl, 2 mM DTT; 19 injections of 2 μl; fitted to the two sets of sites model.

Another experiment addresses T2, UBA5 WT (human, UniProt Q9GZZ9 1-404).
T2 construct: UBA5, human; active site C250; also called E1
The experiment in a line: cross-linking; disulfide trapping: DPDS-activated UFC1-NC (4 μM) mixed with 2 μM UBA5 (WT or mutants) in PBS, 25 °C, 20 min; non-reducing SDS-PAGE, Coomassie.

Experiment [2] addresses T3, UBA5 double mutant C250A and A371C (human, UniProt Q9GZZ9 1-404, C250A | A371C).
T3 construct: UBA5, human, active site Cys removed and a Cys placed in the linker
Described as above.

In experiment [3] the target is B2. The experiment in a line: crystal structure; UBA5(389-404) fused to the C-terminus of UFC1; 2.4 Å; the UBS binds the UFC1 of a fusion molecule of another asymmetric unit; 35 mM citric acid, 65 mM bis-tris propane, 19% PEG3350, 100 mM LiCl, 20 °C.
Experiment [4] addresses B2. The experiment is described as follows: ITC; UFC1 titrated into the UBA5 construct (heat per mole of UFC1); MicroCal PEAQ ITC, 25 °C; 20 mM Tris pH 7.5, 50 mM NaCl, 2 mM DTT; 19 injections of 2 μl; fitted to the two sets of sites model. A general note: ITC needs no label: the signal is the heat of the interaction.

B1: UBA5(347–404) (domain or fragment, human, UniProt Q9GZZ9 347-404, looked up)
chain: SEVSEEELKNFSGPVPDLPEGITVAYTIPKKQEDSVTELTVEDSGESLEDLMAKMKNM
notes: In the crystal structure 7NVK the same stretch stood fused to the N-terminus of UFC1
As for B1, the binding result in the experiment with UFC1 (WT) [1] is on record as “binds”.

In the case of B2, the binding result in the experiment with UBA5 Y372A is on record as “binds”.

B3: UFC1-NC (enzyme, human)
chain: MADEATRRVVSEIPVLKTNAGPRDRELWVQRLKEEYQSLIRYVENNKNADNDWFRLESNKEGTRWFGKSWYIHDLLKYEFDIEFDIPITYPTTAPEIAVPELDGKTAKMYRGGKICLTDHFKPLWARNVPKFGLAHLMALGLGPWLAVEIPDLIQKGVIQHKEKSNQ
modifications: activated with the crosslinker 2,2' dithiodipyridyldisulfide (DPDS); only the active site C116 is left
notes: UFC1 with C69 and C165 mutated to serine, leaving only the active site C116
As to B3, the binding result (with UBA5 WT; in experiment [2]) was “binds” throughout.

B4: UBA5 (389-404) (domain or fragment, human, UniProt Q9GZZ9 389-404, looked up)
chain: DSGESLEDLMAKMKNM
notes: UBA5, human, residues 389-404 (holds the UBS); Never stood alone: it was fused to the C-terminus of UFC1 for the crystal structure; also called UBS; source: E. coli T7 express, purified, as part of the fusion UFC1-UBA5(389-404)
B4: the binding result with UFC1 (WT) [3] is given as “binds”.

B5: UBA5(Δ349-389) (enzyme, human)
chain: MAESVERLQQRVQELERELAQERSLQVPRSGDGGGGRVRIEKMSSEVVDSNPYSRLMALKRMGIVSDYEKIRTFAVAIVGVGGVGSVTAEMLTRCGIGKLLLFDYDKVELANMNRLFFQPHQAGLSKVQAAEHTLRNINPDVLFEVHNYNITTVENFQHFMDRISNGGLEEGKPVDLVLSCVDNFEARMTINTACNELGQTWMESGVSENAVSGHIQLIIPGESACFACAPPLVVAANIDEKTLKREGVCAASLPTTMGVVAGILVQNVLKFLLNFGTVSFYLGYNAMQDFFPTMSMKPNPQCDDRNCRKQQEEYKKKVAALPKQEVIQEEEEIIHEDNEWGIELVSEGSGSGESLEDLMAKMKNM
notes: UBA5, human, up to residue 348; UBA5, human, from residue 390 to the C-terminus (holds the UBS); Linker between UIS and UBS removed, UBS kept
In the experiment with UFC1 (WT) [4], B5 came in with a Kd of 5.5 µM.

What is called Kd is the free concentration of one partner at which half of the binding sites on the other are occupied at equilibrium, for simple one-to-one binding. A lower Kd goes with a tighter complex.
